# Assay: patients with anti-drug antibodies; higher = more immunogenic
row,Protein,patients with anti-drug antibodies [%]
1,unnamed (protein) chain 1: QVQLVESGGGLVQPGGSLRLSCAASGFTFRSHWLSWVRQAPGKGLEWVSNINYDGSSTYYADSVKGRFTISRDNSKNTLYLQMNSLRAEDTAVYYCARDTYLHFDYWGQGTLVTVSS chain 2: DIALTQPASVSGSPGQSITISCTGTSSDVGDINDVSWYQQHPGKAPKLMIYDVNNRPSGVSNRFSGSKSGNTASLTISGLQAEDEADYYCQSYAGSYLSEVFGGGTKLTVL,0
2,unnamed (protein) chain 1: EVQLVESGGGLVQPGGSLRLSCAASGFTFSRYSMSWVRQAPGKGLELVAQINSVGNSTYYPDTVKGRFTISRDNAKNTLYLQMNSLRAEDTAVYYCASGDYWGQGTLVTVSS chain 2: DVVMTQSPLSLPVTLGQPASISCRSSQSLIYSDGNAYLHWFLQKPGQSPRLLIYKVSNRFSGVPDRFSGSGSGTDFTLKISRVEAEDVGVYYCSQSTHVPWTFGQGTKVEIK,3.5
3,unnamed (protein) chain 1: EVQLVESGGDLVQPGRSLRLSCVASGFTFDDYAMHWVRQAPGKGLEWVSGVSWSGSTVGYADSVKGRFTVSRDNAQKSLYLQMNSLRAEDTALYYCVKDAYKFNYYYYGLDVWGQGTTVTVSS chain 2: EIVMTQSPATLSVSPGERATLSCRASQTILSNLAWYLQKPGQAPRLLIYGASTRATGLPARFSGSGSGTEFTLTISSLQSEDFAVYYCQQYNNWPLTFGGGTKVEIK,5
4,unnamed (protein) chain 1: EVQLVESGGGLVQPGRSLRLSCAASRFTFDDYAMHWVRQAPGKGLEWVSGISWNSGRIGYADSVKGRFTISRDNAENSLFLQMNGLRAEDTALYYCAKGRDSFDIWGQGTMVTVSS chain 2: DIQMTQSPSSVSASVGDRVTITCRASQGISSWLAWYQQKPGKAPKLLIYGASSLESGVPSRFSGSGSGTDFTLTISSLQPEDFASYYCQQANSFPYTFGQGTKLEIK,3.8
5,unnamed (protein) chain 1: EVQLVESGGGLVKPGGSLRLSCAASGFTFSNYAMSWVRQAPGKGLEWVATISSGGSHTYYLDSVKGRFTISRDNSKNTLYLQMNSLRAEDTALYYCARLFTGYAMDYWGQGTLVTVSS chain 2: QIVLTQSPATLSLSPGERATMSCTASSSVSSSYLHWYQQKPGKAPKLWIYSTSNLASGVPSRFSGSGSGTDYTLTISSLQPEDFATYYCHQYYRLPPITFGQGTKLEIK,8
6,unnamed (protein) chain 1: EVQLVESGGGLVQPGGSLRLSCAASGFTFSPFAMSWVRQAPGKGLEWVAKISPGGSWTYYSDTVTGRFTISRDNAKNSLYLQMNSLRAEDTAVYYCARQLWGYYALDIWGQGTTVTVSS chain 2: EIVLTQSPATLSLSPGERATLSCSASISVSYMYWYQQKPGQAPRLLIYDMSNLASGIPARFSGSGSGTDFTLTISSLEPEDFAVYYCMQWSGYPYTFGGGTKVEIK,2.9
7,unnamed (protein) chain 1: EVQLVESGGKLLKPGGSLKLSCAASGFTFSSFAMSWFRQSPEKRLEWVAEISSGGSYTYYPDTVTGRFTISRDNAKNTLYLEMSSLRSEDTAMYYCARGLWGYYALDYWGQGTSVTVSS chain 2: QIVLIQSPAIMSASPGEKVTMTCSASSSVSYMYWYQQKPGSSPRLLIYDTSNLASGVPVRFSGSGSGTSYSLTISRMEAEDAATYYCQQWSGYPYTFGGGTKLEIK,0.2
8,unnamed (protein) chain 1: QVQLVQSGAEVKKPGASVKVSCKASGYTFTNYGMNWVRQAPGQGLEWMGWINTYTGEPTYADDFKGRVTMTTDTSTSTAYMELRSLRSDDTAVYYCARIGDSSPSDYWGQGTLVTVSS chain 2: EIVMTQSPATLSVSPGERATLSCKASQSVSNDVVWYQQKPGQAPRLLIYYASNRYTGIPARFSGSGSGTEFTLTISSLQSEDFAVYYCQQDYTSPWTFGQGTKLEIK,0
9,unnamed (protein) chain 1: EVQLQQSGPELEKPGASVKLSCKASGYSFTGYNMNWVKQSHGKSLEWIGHIDPYYGDTSYNQKFRGKATLTVDKSSSTAYMQLKSLTSEDSAVYYCVKGGYYGHWYFDVWGAGTTVTVSS chain 2: DIQMTQSPSSLSASLGERVSLTCRASQDIGSSLNWLQQGPDGTIKRLIYATSSLDSGVPKRFSGSRSGSDYSLTISSLESEDFVDYYCLQYVSSPPTFGAGTKLELK,58
10,unnamed (protein) chain 1: QVQLQQSDAELVKPGASVKISCKASGYTFTDHAIHWAKQKPEQGLEWIGYISPGNDDIKYNEKFKGKATLTADKSSSTAYMQLNSLTSEDSAVYFCKRSYYGHWGQGTTLTVSS chain 2: DIQMTQSPASLSVSVGETVTITCRASENIYSNLAWYQQKQGKSPQLLVYAATNLADGVPSRFSGSGSGTQYSLKINSLQSEDFGSYYCQHFWGTPYTFGGGTRLEIK,55
